The experiment deals with T1, human MICA endogenously expressed on the surface of HCT116 colon carcinoma cells (human, UniProt Q29983 24-383).
T1 sequence (looked up): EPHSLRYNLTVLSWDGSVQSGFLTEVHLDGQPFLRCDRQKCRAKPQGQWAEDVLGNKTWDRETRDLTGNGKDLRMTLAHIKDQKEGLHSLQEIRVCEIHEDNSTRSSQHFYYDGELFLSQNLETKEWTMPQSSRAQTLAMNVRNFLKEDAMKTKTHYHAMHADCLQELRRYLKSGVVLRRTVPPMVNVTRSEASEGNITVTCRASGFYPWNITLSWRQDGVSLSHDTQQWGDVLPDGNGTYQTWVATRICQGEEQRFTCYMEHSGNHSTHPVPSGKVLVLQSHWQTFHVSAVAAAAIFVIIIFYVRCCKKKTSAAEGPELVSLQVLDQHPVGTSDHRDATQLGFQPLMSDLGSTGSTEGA
As to the kind of experiment: cell-based or functional assay.

B1: chimeric antibody 6E4 (human IgG1 constant regions) conjugated to a PBD dimer, DAR about 2 (antibody, V domains shown)
VH: EVQLVESGGALVKPGGSLKLSCAASGFTFSYYAMSWVRQTPEKRLEWVATISRGGNYIYYTDSVKGRFTISRDNAKNTLYLQMTSLRSEDTAMFYCASISDYDGAWLAYWGQGTLVTV
VL: DVLMTQTPLSLPVSLGDQASISCRSSQSIIHTNGNTYLEWYLQKPGQSPKLLIYKISNRFSGVPDRFSGSGSGTDFTLKISRVEAEDLGVYYCFQGSHVPWTFGGGTKLEIK
modifications: PBD dimer via NH2-PEG-N3 / DBCO-val-ala linker on Q295 (Kabat EU numbering) of each heavy chain constant region
Consider B1, for which the “EC50 (also referred to as IC50) of cytotoxicity towards HCT116 cells, cell confluence over one week (IncuCyte)” value (from here on “EC50 … over one week (IncuCyte)”) worked out at 2.25 ng/mL.

B2: chimeric antibody 19E9 (human IgG1 constant regions) conjugated to a PBD dimer, DAR about 2 (antibody, V domains shown)
VH: DVQLQESGPGLVKPSQSLSLTCTVTGYSITSDYAWNWIRQFPGNKLEWMGFVSYSGTTKYNPSLKSRISITRDTSENQFFLQLNSVTSEDTATYYCARGYGFDYWGQGTTLTVSS
VL: EIVLTQSPTTMAASPGEKITITCSATSSISSIYFHWYQQRPGFSPKLLIYRTSNLASGVPARFSGSGSGTSYSLTIGTMEAEDVATYYCQQGTTIPFTFGSGTKLEIK
modifications: PBD dimer via NH2-PEG-N3 / DBCO-val-ala linker on Q295 (Kabat EU numbering) of each heavy chain constant region
With B2, the “EC50 … over one week (IncuCyte)” value was 0.475 ng/mL.

B3: chimeric antibody 9C10 (human IgG1 constant regions) conjugated to a PBD dimer, DAR about 2 (antibody, V domains shown)
VH: QVQLQQPGAELVRPGTSVNLSCKASGYSFTRYWMNWVKQRPGQGLEWIGMIHPSDSETRLNQKFKDKATLTVDKSSSTAYMQLSSPTSEDSAVYYCGYGNFFYVMDYWGQGTSVTVSS
VL: DILLTQSPAILSVSPGERVSFSCRASQSIGTSIHWYQQRTNGSPRLLIKFASESISGIPSRFSGSGSGTDFTLNINSVESEDIADYYCQQSNFWPFTFGSGTKLEVK
modifications: PBD dimer via NH2-PEG-N3 / DBCO-val-ala linker on Q295 (Kabat EU numbering) of each heavy chain constant region
As to B3, the “EC50 … over one week (IncuCyte)” value worked out at 7.77 ng/mL.

B4: chimeric antibody 18E8 (human IgG1 constant regions) conjugated to a PBD dimer, DAR about 2 (antibody, V domains shown)
VH: DVQLQESGPDLVNPSQSLSLICTVTGYSITSDYSWHWIRQFPGNKLEWMGNIHYSGRINYNPSLRSRISITRDTSKNQFFLQLISVTTEDTATYYCATRRTFGNFEDYWGQGTTLTVSS
VL: QIVLSQSPATLSVSPGEKVTMTCRSSSSVNYMHWYQQKPGSSPKPWIYATSTLASGVPARFSGSGSGTSYSLTISRVEAEDAATYYCQQWSSNPLTFGAGTKLELK
modifications: PBD dimer via NH2-PEG-N3 / DBCO-val-ala linker on Q295 (Kabat EU numbering) of each heavy chain constant region
As for B4, the “EC50 … over one week (IncuCyte)” value was found to be 3.77 ng/mL.

The values above are taken from patent US20200023071A1 (INNATE PHARMA, published 2020).
